Laboratory results from patent publication US20050233963A1 (priority 2000, published 2005).

Assays:
hsc70 = biological target: T1, hsc70 (Bos taurus, UniProt P19120); assay: UBP far-western analysis on hsc70; format: binding; details: GST fusions as probe
T1 construct: purchased Stressgen
Source text: FIG. 13A: Thirty μg of HeLa cell lysate was separated by SDS-PAGE in three identical lanes, blotted to nitrocellulose and probed with either, no probe (none), GST alone, or GST-UBP. The far-western blot was then developed with anti-GST antibody to reveal bands which interact with UBP. The arrow to the right indicates a 70 kD band detected by the GST-UBP fusion. The numbers to the left of each blot represent molecular weights in kilodaltons. […] FIG. 13C, Samples from the GST-UBP pull down assay were analyzed by western blot for the presence hsc70. At the bottom of the gel, the contents of each reaction are indicated by the plus symbols. The NaCl concentration of the washing buffer (100, 200, 300, and 500 mM) is indicated at the top of each lane. The arrow to the right of the blot indicates the position of the hsc70 band.
The term “hsc70” is used when referring to both hsp70 and its nearly identical constitutive counterpart, hsc70. […] The numbers to the left of the blots indicate the molecular weights in kilodaltons. The diagram below the blots indicates regions of UBP contained in each fusion construct. The column to the right summarizes the results, where a plus symbol indicates binding and a minus symbol indicates no binding.
Western blots were performed using standard techniques. Briefly, 30 μg HeLa cytoplasmic extract or 20 ng of hsc70, hsp70, or hsp90 were denatured in 1×SDS sample buffer. The samples were loaded on a 10% polyacrylamide gel. Separated protein was transferred to nitrocellulose membranes. The membranes were blocked in 5% dry milk protein in TBS (20 mM Tris [pH 7.4], 100 mM NaCl) for 45 min. The gels with proteins separated on them were transferred to nitrocellulose and blocked against 5% dry milk protein in TBS for 45 min. Primary antibody, either anti-hsp70 or hsp90 monoclonal antibodies, or anti-UBP rabbit polyclonal antibody was incubated with the blots at appropriate concentrations (1:1000 dilutions for each) in 5% milk protein in TBS for 2 hours at 4° C. with gentle rocking. The membranes were washed with TBS for 10 minutes. […]

HIV-1 = HIV-1 particle release, p24 antigen capture ELISA in transfected HeLa cells; format: cell-based, human immunodeficiency virus type 1; details: co-expression in HeLa cells
Method: FIG. 20B: Alternatively, HeLa cells were co-transfected with 1 μg of Vpu^+ or Vpu^− proviral genomes and 10 μg pHIV-TARluc (Luc) or pHIV-FTPR. Thirty-six hours after transfection the amount of p24 Gag in the media and cell pellets was quantified using an antigen capture ELISA. The relative particle release is given by the ratio of extracellular to intracellular p24. The data were normalized to the control (Luc). The error bars represent the error of the mean for three independent experiments.
Triplicate plates of 5×10^5 HeLa cells were transfected with 1 μg of Vpu^+ (MSMBA) or Vpu^− (DF101) proviral genomes and 10 μg of pHIV-UBP, pHIV-UBP-N, pHIV-FTPR or pHIV-TARluc. Thirty-six hrs after transfection, media were harvested and centrifuged at low-speed to remove cellular debris. The cells were washed with 1×PBS, resuspended in 1 ml of PBS, then pelleted at 5000×g in microfuge tubes. The cell pellets and media were treated with lysis buffer and applied to an HIV-1 p24 antigen assay kit following the instructions of the manufacturer (Coulter, Westbrook, Maine). Samples were processed along with positive controls to give quantitative levels of p24 Gag. Data were plotted as a function of the relative p24 units.

T1 sequence (P19120 2-650 limits assumed): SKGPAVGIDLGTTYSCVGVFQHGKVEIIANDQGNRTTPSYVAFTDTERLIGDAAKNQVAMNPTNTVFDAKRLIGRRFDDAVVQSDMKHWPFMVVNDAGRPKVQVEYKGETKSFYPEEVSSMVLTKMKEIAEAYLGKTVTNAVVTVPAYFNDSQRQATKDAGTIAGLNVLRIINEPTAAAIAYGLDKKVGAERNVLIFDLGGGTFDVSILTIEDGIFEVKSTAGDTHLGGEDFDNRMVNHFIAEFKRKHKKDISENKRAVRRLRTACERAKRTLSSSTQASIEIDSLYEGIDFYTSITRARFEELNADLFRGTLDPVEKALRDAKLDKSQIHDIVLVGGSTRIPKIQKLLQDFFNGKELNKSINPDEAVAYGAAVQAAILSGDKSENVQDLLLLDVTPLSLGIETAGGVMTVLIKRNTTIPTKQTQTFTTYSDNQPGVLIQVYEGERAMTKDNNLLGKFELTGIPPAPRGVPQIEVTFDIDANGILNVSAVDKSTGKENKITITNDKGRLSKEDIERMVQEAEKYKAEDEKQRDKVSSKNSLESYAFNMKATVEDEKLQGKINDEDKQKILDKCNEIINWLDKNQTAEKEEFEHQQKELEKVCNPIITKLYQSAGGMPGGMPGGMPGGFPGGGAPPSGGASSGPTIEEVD

Molecule | interaction with hsc70 (hsc70) | efficiency of virus particle exit (extracellular to intracellular p24 Gag) (HIV-1; Vpu present) | efficiency of virus particle exit (extracellular to intracellular p24 Gag) (HIV-1; absence of Vpu)
TPR 2-4 (protein, left off: a dimerising Fc or GST) KTEGNEQMKVENFEAAVHFYGKAIELNPANAVYFCNRAAAYSKLGNYAGAVQDCERAICIDPAYSKAYGRMGLALSSLNKHVEAVAYYKKALELDPDNETY | capable of stable interaction |  | 
N 1/2: N-terminal portion of UBP (a.a. 1-145) (protein, left off: a dimerising Fc or GST) MDNKKRLAYAIIQFLHDQLRHGGLSSDAQESLEVAIQCLETAFGVTVEDSDLALPQTLPEIFEAAATGKEMPQDLRSPARTPPSEEDSAEAERLKTEGNEQMKVENFEAAVHFYGKAIELNPANAVYFCNRAAAYSKLGNYAGAV | did not detectably interact | slight increase | did not significantly increase
C 1/2: C-terminal half of UBP (a.a. 145-313) (protein, left off: a dimerising Fc or GST) VQDCERAICIDPAYSKAYGRMGLALSSLNKHVEAVAYYKKALELDPDNETYKSNLKIAELKLREAPSPTGGVGSFDIAGLLNNPGFMSMASNLMNNPQIQQLMSGMISGGNNPLGTPGTSPSQNDLASLIQAGQQFAQQMQQQNPELIEQLRSQIRSRTPSASNDDQQE | did not detectably interact |  | 
FTPR: UBP fragment containing TPR 2-4 with flanking charged residues (a.a. 81-209) (protein) TPPSEEDSAEAERLKTEGNEQMKVENFEAAVHFYGKAIELNPANAVYFCNRAAAYSKLGNYAGAVQDCERAICIDPAYSKAYGRMGLALSSLNKHVEAVAYYKKALELDPDNETYKSNLKIAELKLREA |  | slight increase | did not significantly increase
